Values of other authors in paper PMC4426669.
pKd: −log10 of the molar value.

Target: eIF2B1 (Homo sapiens) (UniProt Q14232)

pKd: > 9.00
Substance: eIF2B1 (from UniProt Q14232)
